The data set deals with the molecule itself. The data set is described as follows: crystal structure; Act2 alone; hanging drop, 0.1 M sodium formate pH 7.0, 12% PEG 3,350, room temperature; space group P 41 21 2; two molecules in the asymmetric unit; tetramer from crystal packing.

Several values for one entry are separate records, joined by “and”; a condition that tells them apart may be missing. Equal values may be shown once.

In general, stoichiometry N refers to a count of units in the complex or per binding partner.

B1: Syntrophomonas wolfei Göttingen Act2 (Swol_0675), acetyl-CoA acetyltransferase (enzyme)
chain: MAEINEVVVVGMARTPIGRYLGGLASVRANDLAIIAANAAIERAGVDPGIIDEIVGATCLHAGNGSLPPRIIGMKVGLPVRSGSCMVSQNCASGMRATEIACQNIMLGKTDISLVTAVESMSNIPYLLQQARSGYRMGDGKVQDAMLSDGLVCQLAGGHMGMTAENIAEKYGITREECDALALTSHQNAVKAVDEGIFDREIVPVVIKSKKGDKVISKDEHPIRGASLETMAKLPPAFKKGGVVTAANASGINDCAAAAVFMSKKKCEELGLKPLMKLVGICSEGVDAKVMGLGPAVAMPKVLKQAGWKYEDVDYWEVNEAFAAQVLGVVRMLKEEAGIELDFSKTNHNGSGIGLGHPVGATGLRIIVSMYYELERLGLTKGGASLCVGGGSAMASLWTRDI
notes: Act2, acetyl-CoA acetyltransferase encoded by the gene Swol_0675 of Syntrophomonas wolfei subsp. wolfei strain Göttingen; synthesized gene cloned into pMAPLe4; The asymmetric unit holds a homodimer; also called acetyl-CoA transferase; acyl-CoA transferase paralog; source: E. coli BL21-Gold (DE3), purified (NiNTA, TEV cleavage, Superdex 200 SEC); not shown: His6, N-terminal, cleaved
Take B1: the “stoichiometry N” value was 2 and 4.

These data come from publication PMC9676460, “Dynamic acylome reveals metabolite driven modifications in Syntrophomonas wolfei” (Frontiers in Microbiology, 2022).
